Measured values taken from paper PMC2733758 (The Journal of Cell Biology, 2009).

Biological target: T1, GST∷CED-9(R211E, N212G) (C. elegans, UniProt P41958 1-280, R211E | N212G)
T1 sequence (looked up): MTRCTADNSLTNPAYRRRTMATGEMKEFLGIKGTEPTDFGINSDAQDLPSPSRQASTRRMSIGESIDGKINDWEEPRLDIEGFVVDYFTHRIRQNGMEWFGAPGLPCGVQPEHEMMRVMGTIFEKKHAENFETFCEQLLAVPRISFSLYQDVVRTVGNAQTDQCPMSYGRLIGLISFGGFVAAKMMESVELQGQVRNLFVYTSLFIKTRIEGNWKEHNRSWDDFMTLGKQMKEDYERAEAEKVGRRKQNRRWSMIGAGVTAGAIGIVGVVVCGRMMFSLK
Test: pull-down

B1: in vitro-translated, [35S]methionine-labeled FZO-1 protein (natural protein, C. elegans, UniProt Q23424 1-774, looked up)
chain: MSGTASLVHTLPASGDSNHRGLHSLKNSRRAADNEPLLRFREAKKVLGDVYGELKDNVAELEGVYKDIKENDFVSSEQREEIEAIGDSIKTIMDTFQRDNMKVVFFGRTSNGKSTTINAMLHEKVLPQGMGHTTCCFLQVEGSEGEVGHLQLDDNPQKIDMKMLGKIGHALSDENSDLPAMGQDSLLKVFHPKKSESGECRLLQNDVVILDSPGVDLSPEFDSWIDKHCLDADVFVLVSNAESTLTQAEKNFFLRVAKKLSKPNVFILNNRWDASAAETENIEDVKKQHLTRFRQFLVDELEVCSEREVNDRIFFVSSREVLESRLKARGLVQKAYQAEGHGTRALEFQNFERHFEHCISRSAIHTKFEAHNRRAHEMIGKMRLNLNSVLTSAAEQRSKLQNNLNESTRTFNECRVNFTQFEKAYREQTEQLRAEVHLKVSADFFEEIARLDAIIDRFEQPFDGSSSGMTKYKEDLAIFVDKCLSSDLEARCTGGLMSRIWNLENDMFQYVTKILAEPYQNKLEEVWRYRAPFKFSICVDVPALVNDFHEDLEFRFTFGLHAIIRRIIAYRSGQPVTAINTNLLTPLSLKQQSEKNSVRDAEASAASEEQAMMTQMVLTSAAFLANGSLGVLVVGGIVYKAVGWRVIAVGGAAYAGLYAWERMRWNSGAKEQHLKEQFRSHLAARMQQVSTAHTHHCETQAIREMDQVFDGLKATVGGVHREMKNDLDVQKTQIDAVDSTIRTLGTIKGKAVFLLRNLEQFASSYLRSDSPPTP
modifications: [35S]methionine-labeled
For B1, the “fold lower affinity than wild-type CED-9” value was 3 fold.
